Consider 70 sequences from the domain aggregation screens of Martell et al. (2025).
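Further: 20 min heating vs room temperature control held 20 min.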

The nature of this series: soluble fraction after stress (log2 fold change); higher = more stays soluble; pooled small domains, quantitative proteomics. The note with it: stress: 75 degC.
With “HMSIELEISADGNNYRVSGLSDGEDVRVYSVSGVQVFSGKAQGGEVVIPADNWNKGIYVISAGGSSVKVL”, the “soluble fraction (log2)” value is -0.594.
Regarding “HMSIGLEDLIEQKGVADTDLRPSGWINVGNQRIFVVTEGSYIDQNDNVIILSVDGNRVVVRKI”, the “soluble fraction (log2)” value is -1.2.
Under “HMSIGLEELVGSHGEAITDLRPAGQVSIAARRISAVSEGDFINKGDSVEVLSVEGYRVMVRKLET” stands -0.34; under “HMSIITLFQEINAAVAEATGGRVPESVVQNFILGKDVVIPEDVKEIIISKLKAFATDIEGMLEESGFD”, -2.62.
To “HMSILDEAEFKKIESALLDFITNNIFTVKELLQASRGIKQDKFWKVFQFLQSERKVVVNELGYIEL” belongs -0.287; to “HMSILSIGLERGMKKGVAWGIAKSILDILEETGPVSEKTREMIVTETDAERLSAWVKKAARSNSEEDFLSK”, -0.799; to “HMSILSRREHEIMQWVKGGKTNIEIAQILGISARTVRNHLQNVFRKLDVINRAQAVFEVERRR”, -2.68.
Under “HMSIMNEQIREILNQQVTKTSKIQQLLLLGLTRRQVADLVTNGNYGFVQNVYRNMLDAGIFTP” stands -1.13; under “HMSIMNLSEKIVVLRKSNGMSQEELAEKLYVSRQAVSRWEMGTAVPDSTNILQLGKLFHVTTDYLLNDEYE”, -3.36; under “HMSINQIADKGYITRLIDNNANIKDVLYYDASSRILAIEDPKYMFYLKNTDWNQFAKEMGFKLE”, -0.794.
Take “HMSINTLEVHSLKALENLAESPLLISFSYENEEYNYRLASSDVSLLKKISSNYSDDSDIKGLRFIS”: the “soluble fraction (log2)” value was -0.893.
In the case of “HMSIQQEATGNRIRELLLNNGYTVKDIQEVMGFENPQAVYKWLSGKSLPNLDNLLILSKVLHTSIEDILV”, the “soluble fraction (log2)” value is -1.09.
Under “HMSISSIDFENLKSDELSDAQITQIYRQAQEQGLSIDELSSLAIARGMSPTEVAKLRSRFNSIP” stands 0.0936.
Under “HMSIVVPDLRGKTLEEARAILKEADLDFEINDSTFSKTARPGTIRDVVPSPGSRVKAGRILFISINGF” stands -0.781; under “HMSIYQYFNISEINSIDDLKKQYFKLAKKYHPDAGGDKVSFQELQNEYEQLTKKILSGAELNADELKTE”, -0.126; under “HMSKASLFFLFNHKDELYIVDNNHVQDVPKPRELIRRFSTIEQIREHALHLGLPIANDTARE”, -3.31.
Under “HMSKEGLASLLEDINGLGAIRRKTLIDHFGSVAKIRGARPEEIAALPGMGRKIAEHILASLRED” stands -0.541.
Regarding “HMSKEKQILQLLQHGYSQRRIADTLSVSRNTVAKVAKAAIEHPVSSDSLDSIDELELHQKLFPEEVLI”, the “soluble fraction (log2)” value is -0.486.
To “HMSKGKNEVIAYLKAHNDHRLTVAEILDGLKEEGISINRSTIYRNLDKLVENGDILAFKGKDSESAFYQYS” belongs 0.0611; to “HMSKHLWNKVLPKVTTANITNLINQAIRKGEWRMDNKGVVHIIWRYRGKIIEVTGYLKDKVFNVGNAWVR”, 0.226; to “HMSKITNALLMMKLLSNGKVYSVKELSEELGVTERMVRNYKEQLEMSGYIIESFKGPGGGYFINKN”, -2.61.
Consider “HMSKKAIVINLLKRPDGASLKDIMQATYWQAHSVRGFISGSLTKKMGLNVESFKRPDGERAYRIN”, for which the “soluble fraction (log2)” value was -2.47.
As for “HMSKLIDQELINFFKNQIESKSFRYGVSIEDSYEEIKSNQIKFYGEQEDKLKAIDNAFIELKRERAGIR”, the “soluble fraction (log2)” value was -0.168.
To “HMSKNDLAGDEADVYKLLSVETGKPISDLVNRLPFGKSKTREILNTLAEKGFVYISGSGRGTKYHR” belongs -0.296; to “HMSKNTFIGNIDDKELYVGSGRYGPFMLYDGKFTNITRYLSDESKELTDITIDDYSKIVNNARPK”, -0.175; to “HMSKNVTMPNLVGYSMRQAKAELLSRGLHLGKLIYVNDIATNNVISQLYRNAEIEPGVKIESESYVDLVVG”, -1.76.
Consider “HMSKPTLTDELLTLDLFEEIIKAKENAKGANKRFSLVGFLESKYIVDQEMLPKVNVKVTEYYNLTREN”, for which the “soluble fraction (log2)” value is -1.8.
As to “HMSKPVVWIVGDSTVSAFTDNYYYPRYGWGTQIDKYLDGTFEVKNIALSGRSSTSYTADKEYGELIAG”, the “soluble fraction (log2)” value amounted to 0.293.
In the case of “HMSKRIFPNEFQRNSPDAMVMLDKMNLSRINVDPLTKSLTLNGGGSVKTLLNGREVSAVEIAALSP”, the “soluble fraction (log2)” value is 0.124.
In the case of “HMSKSENLYSAARELIPGGVNSPVRAFTGVGGTPLFIEKADGAYLYDVDGKAYIDYVGSWGPMVLGHNHP”, the “soluble fraction (log2)” value was -0.337.
“HMSKSIEEIYDEAIRSLANEEYDSAKKLFSYLIDNFSDPEKLPLSLFWLGEIEFSSSNFDQSKIHYIE”: the “soluble fraction (log2)” value was -0.15.
Under “HMSKSIGEALKEERRSLGLTQEQFIKGIISESFYSKVERGKNEIVAVDLLKILAANNISEEEFLSKLN” stands -0.694; under “HMSKSPELMEKIKEFAEGYFRENGETPSNKTIAGAMGMGRSTVYYYLVDMAQRGMISYENGVISTEKIRKL”, -1.4.
To “HMSKTDYKILYSDLNREDAKQLSLLLEDKKIPYQTSEDGKTIKIPEGMVNRFRMEVATMGVNF” belongs -0.0248; to “HMSKTKDVLVQLMAERGLTQSDIARALSVRPQAVQQWVSGKTRPTGKNLEALAEFLQLPPAVIVHGP”, -0.282; to “HMSKTQVKSVLDDIKGIGVVRRKALIKHFNDIEAIKAAQLAELKAVAGMDSKSAQSVYDFFHK”, -0.453.
To “HMSKYERVYTGSEINVNHLKSQLEDAGISSVVRNDHESAIRAGFGSDYDRGVLLFVEKDNLLRAKHIIEKT” belongs 0.126; to “HMSKYLAFTVKKNDELLPFIEKALNGISHTKAKAILANGGAMVNKNTITQYNYPLTPGMTVEISRH”, -0.5.
Consider “HMSLDLNENEKTIFDIIQNKKTIRLSELKIEAGLSNKGWDKAMKSLTKQGLAKVVKTEDQLTVKLL”, for which the “soluble fraction (log2)” value was -0.499.
To “HMSLEDNEVIQRMKVILDRFDEETAVDRTTAFKAVLDHIGKMDAESKTLEHMAEMLEALLDKVLEE” belongs -1.09; to “HMSLGPNAYGKPATALNILRETVMGKELFDHAFKTYSKRWMFKHPSPEDFFRTMEDASAVDLDWFWR”, 0.178; to “HMSLGSQEYSIGFRNGDSTYHYIDKALKELAYEGVIDELSTQWFGSSRAVDFPSQKDALSELGYIA”, -0.123.
“HMSLGSSLFHARKKSGLTQEAVAEKLGVSRQTISKWETNETLPDIRQSKGLAMLYHMTLDELIE”: the “soluble fraction (log2)” value is -0.422.
To “HMSLGTDVVPDFTGKGIKEAKTEFAAYSEGELYIIGEGEKVKEQFPLPGEKVNKNSDLILYV” belongs 0.0388; to “HMSLIDLLQLNRKSKKLTLMNLVEMTGLSYGKVYRIFNGGIDKPTPDSLKLLAKALQLDYSYLFHKAGYL”, -0.468; to “HMSLIEQKSQIPLVQGGQRVDKVAAALFTDFSRAELTGWIQQGALTLDGAVVKPKYKVLGGEWLYLRASQS”, -1.75.
To “HMSLNIIEITAKKEINELKSFNIIYFNFDKNNSIYEYKISEREKKEILEIEKIIKNSDNVTNYEIRYSF” belongs -1.31; to “HMSLNQRIKEARIKMGYTQEQLGNLIGVAKTTISGYEKNREPDAATIGLIIDALKVDANFLFQ”, -2.06; to “HMSLNSELIARIENLIASIEDKRSWGYGFAESVLGQVQAGATLSPRQLEIIAKLEKENSYSVQLERQ”, -1.16.
To “HMSLPALSAEEQKIVDALHGTPKGVDDIIAETGISSGALLRSLTMLELKKVIVRLPGNRIAPK” belongs -1.53.
For the sequence “HMSLPDREVVLETSSDSYYHFKTDHFQRQITYSAVRNAPVRLVTISAERAFEVISLNRRGERPEHLE”, the “soluble fraction (log2)” value was -3.24.
Turning to “HMSLQEISDLISQAERADQEQLKEVLKQLHQVESGNQPMSKGFLSSALSTLNKYPALITSIGQLLFKLAT”, the “soluble fraction (log2)” value is -0.217.
As for “HMSLSEGVSADVVADVQARLMELGYMDEDDPDGNFSESTRIAVEHFQQQAGLPVTGTVDKATLDALNSPD”, the “soluble fraction (log2)” value is 0.264.
To “HMSLSQLGLTPRQTDVLALLLKGQPNKLIARELGLSVETVKDHVAAVLRALNVSSRTQAVIAVSQMLQ” belongs -2.13.
To “HMSLSVEESYKLLDISPSAGDEEITKKFRLLALKYHPDKNRSKIEWANNIMSRLNQAYSVIMSSRFESNAE” belongs -1.6; to “HMSLTTKSVEETLGITRQTLHNWIKEGLLPAPKKDFRNWYIWSDEDLENLRNIIEQKTLINNKKQAV”, 0.203; to “HMSMANKKDFILDTAQKLFMEQGFDQTSISQILEATQIARGTLYYYFSSKEEIMDAIIERTIEQ”, -0.966.
Turning to “HMSMDYYNILGVNRNASTGEIKKAYKRASMQHHPDRGGNSDEFIKVQQAYDTLSDNHKRQAYDNP”, the “soluble fraction (log2)” value was -0.0907.
To “HMSMDYYSTLGVSKTASASDIKKAYRKLAMANHPDKGGDSAKFAKITEAYDVLKDPQKRNNYDQFGTA” belongs 0.0592; to “HMSMEQAKAEEIEKLGDNAPERLQAAALFAEKFFPQDVMDAVYKITETADGVRAIEHIMQTVK”, -1.11.
Turning to “HMSMISLPNFVGKDIETVKAWAKENGITLIINKVEDSAKKDTVISQNPTNSDYSKILKGSAFTVNIAKE”, the “soluble fraction (log2)” value is 0.0389.
Under “HMSMRILNHTVVKILKRYRIATDEQLQPLLDEAERSGRSLQDVVLDAKLVSETELTKLFADYAD” stands -3.66.
Under “HMSMVGNIEKILVTGESKKSSELLAGRTENNRVVNFTGEKVLIGSMVNVRIEEVFPNSLGGSYLPS” stands -0.133.
Turning to “HMSNAIDDAVEKVISENLDLAKERGLQSMGPLMGLVMKELGGTADGKAVSEALRRKISEISD”, the “soluble fraction (log2)” value is 0.413.
For “HMSNEDAYIKLRNGFLATLSEADLLLFTLREEGKTQKEIADQLGYKTHSAVSKRLQTMRGQFEGYLKTQ”, the “soluble fraction (log2)” value was -1.03.
Take “HMSNEIIFNQKSITRFLMNPENNSPMIYPLELGHEMKVIKKNNDWLNVTDEKTGLNGWVISDDFGLTKPEG”: the “soluble fraction (log2)” value was -0.118.
“HMSNETLFEFFEKNISQLTPTLVDNINRSLAVHSKKNVKLAIMIAAKSNVRNWNYISAILNRWEKE”: the “soluble fraction (log2)” value is -2.4.
On to “HMSNIAQRLVLENALAKLNQEQQTIIDLRIIKGYSVAETARLLGKTESAVRTAQYRALKELAGILEED”, for which the “soluble fraction (log2)” value is -2.07.
“HMSNIIIYPNPTNDGLIHIKGSKFPFNYALYNLSGKLIETGKKNQIQLNDRGVYLLKIQTEGQTYFKKII”: the “soluble fraction (log2)” value was -0.16.
Under “HMSNNILEISSNKKNMKIQENKNLVESYYSKTENLYSFKLVFKNKRDLDQFLKEVYEDDSTINYKTSS” stands -1.27.
